Data on eleven sequences can be found in the supplement of paper PMC5998384.

In data set [1] the test system is HeLa Kyoto. Nature of the data set: solubility in G1/S (NP-40 vs SDS abundance) (log2 ratio); higher = more soluble. The settings on record: cell cycle stage: G1/S.
Data set [2] has as its system HeLa Kyoto. Kind of data set: solubility change mitosis vs G1/S (difference of NP-40 vs SDS log2 ratios) (log2 ratio difference); higher = more soluble in mitosis.
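For solubility change mitosis vs G1/S (difference of NP-40 vs SDS log2 ratios) in this document: synchronized HeLa Kyoto cells (double thymidine block for G1/S, nocodazole release for mitosis), protein amounts in NP-40 versus SDS lysates quantified by mass spectrometry, three biological replicates.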
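For solubility in G1/S (NP-40 vs SDS abundance) in this document: HeLa Kyoto cells arrested at G1/S by double thymidine block, proteins quantified by TMT10plex mass spectrometry in mild NP-40 versus SDS extracts, three biological replicates.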

Take “MGNTTTKFRKALINGDENLACQIYENNPQLKESLDPNTSYGEPYQHNTPLHYAARHGMNKILGTFLGRDGNPNKRNVHNETSMHLLCMGPQIMISEGALHPRLARPTEDDFRRADCLQMILKWKGAKLDQGEYERAAIDAVDNKKNTPLHYAAASGMKACVELLVKHGGDLFAENENKDTPCDCAEKQHHKDLALNLESQMVFSRDPEAEEIEAEYAALDKREPYEGLRPQDLRRLKDMLIVETADMLQAPLFTAEALLRAHDWDREKLLEAWMSNPENCCQRSGVQMPTPPPSGYNAWDTLPSPRTPRTTRSSVTSPDEISLSPGDLDTSLCDICMCSISVFEDPVDMPCGHDFCRGCWESFLNLKIQEGEAHNIFCPAYDCFQLVPVDIIESVVSKEMDKRYLQFDIKAFVENNPAIKWCPTPGCDRAVRLTKQGSNTSGSDTLSFPLLRAPAVDCGKGHLFCWECLGEAHEPCDCQTWKNWLQKITEMKPEELVGVSEAYEDAANCLWLLTNSKPCANCKSPIQKNEGCNHMQCAKCKYDFCWICLEEWKKHSSSTGGYYRCTRYEVIQHVEEQSKEMTVEAEKKHKRFQELDRFMHYYTRFKNHEHSYQLEQRLLKTAKEKMEQLSRALKETEGGCPDTTFIEDAVHVLLKTRRILKCSYPYGFFLEPKSTKKEIFELMQTDLEMVTEDLAQKVNRPYLRTPRHKIIKAACLVQQKRQEFLASVARGVAPADSPEAPRRSFAGGTWDWEYLGFASPEEYAEFQYRRRHRQRRRGDVHSLLSNPPDPDEPSESTLDIPEGGSSSRRPGTSVVSSASMSVLHSSSLRDYTPASRSENQDSLQALSSLDEDDPNILLAIQLSLQESGLALDEETRDFLSNEASLGAIGTSLPSRLDSVPRNTDSPRAALSSSELLELGDSLMRLGAENDPFSTDTLSSHPLSEARSDFCPSSSDPDSAGQDPNINDNLLGNIMAWFHDMNPQSIALIPPATTEISADSQLPCIKDGSEGVKDVELVLPEDSMFEDASVSEGRGTQIEENPLEENILAGEAASQAGDSGNEAANRGDGSDVSSQTPQTSSDWLEQVHLV [ANKIB1]”: the “solubility in G1/S (log2)” value in the data set with HeLa Kyoto [1] worked out at 0.00548. In addition, in the data set with HeLa Kyoto [2], the “solubility change mitosis (log2)” value was -0.221.
For the sequence “MGPGGPLLSPSRGFLLCKTGWHSNRLLGDCGPHTPVSTALSFIAVGMAAPSMKERQVCWGARDEYWKCLDENLEDASQCKKLRSSFESSCPQQWIKYFDKRRDYLKFKEKFEAGQFEPSETTAKS [COA6]”, the “solubility in G1/S (log2)” value with HeLa Kyoto [1] is -0.656. In addition, the “solubility change mitosis (log2)” value with HeLa Kyoto [2] was 0.327.
In the case of “MGRAVKVLQLFKTLHRTRQQVFKNDARALEAARIKINEEFKNNKSETSSKKIEELMKIGSDVELLLRTSVIQGIHTDHNTLKLVPRKDLLVENVPYCDAPTQKQ [LYRM7]”, the “solubility in G1/S (log2)” value in the data set with HeLa Kyoto [1] came out at 0.581. Also, the “solubility change mitosis (log2)” value in the data set with HeLa Kyoto [2] was found to be 0.302.
Take “MGRKKIQIQRITDERNRQVTFTKRKFGLMKKAYELSVLCDCEIALIIFNHSNKLFQYASTDMDKVLLKYTEYNEPHESRTNADIIETLRKKGFNGCDSPEPDGEDSLEQSPLLEDKYRRASEELDGLFRRYGSTVPAPNFAMPVTVPVSNQSSLQFSNPSGSLVTPSLVTSSLTDPRLLSPQQPALQRNSVSPGLPQRPASAGAMLGGDLNSANGACPSPVGNGYVSARASPGLLPVANGNSLNKVIPAKSPPPPTHSTQLGAPSRKPDLRVITSQAGKGLMHHLTEDHLDLNNAQRLGVSQSTHSLTTPVVSVATPSLLSQGLPFSSMPTAYNTDYQLTSAELSSLPAFSSPGGLSLGNVTAWQQPQQPQQPQQPQPPQQQPPQPQQPQPQQPQQPQQPPQQQSHLVPVSLSNLIPGSPLPHVGAALTVTTHPHISIKSEPVSPSRERSPAPPPPAVFPAARPEPGDGLSSPAGGSYETGDRDDGRGDFGPTLGLLRPAPEPEAEGSAVKRMRLDTWTLK [MEF2D]”: the “solubility in G1/S (log2)” value with HeLa Kyoto [1] came out at 0.219. The “solubility change mitosis (log2)” value in the data set with HeLa Kyoto [2] is 0.0539.
Regarding “MGSAKSVPVTPARPPPHNKHLARVADPRSPSAGILRTPIQVESSPQPGLPAGEQLEGLKHAQDSDPRSPTLGIARTPMKTSSGDPPSPLVKQLSEVFETEDSKSNLPPEPVLPPEAPLSSELDLPLGTQLSVEEQMPPWNQTEFPSKQVFSKEEARQPTETPVASQSSDKPSRDPETPRSSGSMRNRWKPNSSKVLGRSPLTILQDDNSPGTLTLRQGKRPSPLSENVSELKEGAILGTGRLLKTGGRAWEQGQDHDKENQHFPLVES [CDCA3]”, in the data set on HeLa Kyoto [1], the “solubility in G1/S (log2)” value is -0.032. Besides, the “solubility change mitosis (log2)” value in the data set with HeLa Kyoto [2] was 0.957.
With “MGSILSRRIAGVEDIDIQANSAYRYPPKSGNYFASHFFMGGEKFDTPHPEGYLFGENMDLNFLGSRPVQFPYVTPAPHEPVKTLRSLVNIRKDSLRLVRYKDDADSPTEDGDKPRVLYSLEFTFDADARVAITIYCQASEEFLNGRAVYSPKSPSLQSETVHYKRGVSQQFSLPSFKIDFSEWKDDELNFDLDRGVFPVVIQAVVDEGDVVEVTGHAHVLLAAFEKHMDGSFSVKPLKQKQIVDRVSYLLQEIYGIENKNNQETKPSDDENSDNSNECVVCLSDLRDTLILPCRHLCLCTSCADTLRYQANNCPICRLPFRALLQIRAVRKKPGALSPVSFSPVLAQSLEHDEHSCPFKKSKPHPASLASKKPKRETNSDSVPPGYEPISLLEALNGLRAVSPAIPSAPLYEEITYSGISDGLSQASCPLAAIDHILDSSRQKGRPQSKAPDSTLRSPSSPIHEEDEEKLSEDVDAPPPLGGAELALRESSSPESFITEEVDESSSPQQGTRAASIENVLQDSSPEHCGRGPPADIYLPALGPDSCSVGIDE [MGRN1]”, the “solubility in G1/S (log2)” value with HeLa Kyoto [1] was -0.00834. Besides, the “solubility change mitosis (log2)” value in the data set on HeLa Kyoto [2] was determined as 0.156.
As for “MGSRPPCGATSSARRACQFPAPMAAAREPELPQEAPATEPAPPPACRFFLEGRCRFGARCRQPHPGAPAPPGREAQPEAGAKKPPLRTAADVIQRIRWDPRLDPADFSVGYVDRFLGVREEPFSAFCWDQPLAALGPGVLAVPQHRVRFFRFHGRLVWDRASRTDLVFGSGSAAGRGPTILDAPNTEGAHGAEGAEWTLAGTGQEAQAAPKRGSTRPLCTGHQEPGVEEPGELEAAQERALGTAADLGTLAPRGRLAGVTEEALKPTAATRTTLLGGKEAQALGVPGGSAETTEAEWGPAAWPEDKRARLSVAAPCQPRPTHFVALMVTEPGLQAEVTKAQEYLVHVAPHCANFLVPSQNLHLTLALLRLAGAGEEAAAIGALRRALLAPGLNAPPRLSFRKLVLLGPHVLCAPPSPTLESMAQVLSQRLEAEGLSTLQSPGQLHPHLTVAKVPHGSQVHLPKLEFTLSQEVGCQPLQTLWLCRIGRTGGPFQPLAEIRLE [LENG9]”, the “solubility in G1/S (log2)” value with HeLa Kyoto [1] is 0.366. In addition, the “solubility change mitosis (log2)” value in the data set with HeLa Kyoto [2] was -0.034.
As for “MGTIHLFRKPQRSFFGKLLREFRLVAADRRSWKILLFGVINLICTGFLLMWCSSTNSIALTAYTYLTIFDLFSLMTCLISYWVTLRKPSPVYSFGFERLEVLAVFASTVLAQLGALFILKESAERFLEQPEIHTGRLLVGTFVALCFNLFTMLSIRNKPFAYVSEAASTSWLQEHVADLSRSLCGIIPGLSSIFLPRMNPFVLIDLAGAFALCITYMLIEINNYFAVDTASAIAIALMTFGTMYPMSVYSGKVLLQTTPPHVIGQLDKLIREVSTLDGVLEVRNEHFWTLGFGSLAGSVHVRIRRDANEQMVLAHVTNRLYTLVSTLTVQIFKDDWIRPALLSGPVAANVLNFSDHHVIPMPLLKGTDDLNPVTSTPAKPSSPPPEFSFNTPGKNVNPVILLNTQTRPYGFGLNHGHTPYSSMLNQGLGVPGIGATQGLRTGFTNIPSRYGTNNRIGQPRP [SLC30A6]”, the “solubility in G1/S (log2)” value in the data set on HeLa Kyoto [1] was -0.097. For the same sequence, the “solubility change mitosis (log2)” value in the data set with HeLa Kyoto [2] is -0.0121.
Turning to “MIATPLKHSRIYLPPEASSQRRNLPMDAIFFDSIPSGTLTPVKDLVKYQNSSLKLNDHKKNQFLKMTTFNNKNIFQSTMLTEATTSNSSLDISAIKPNKDGLKNKANYESPGKIFLRMKEKVLRDKQEQPSRNSSLLEPQKSGNNETFTPNRVEKKKLQHTYLCEEKENNKSFQSDDSSLRASVQGVPLESSNNDIFLPVKQKIQCQQEKKAPLHNLTYELPTLNQEQENFLAVEARNKTLTRAQLAKQIFHSKESIVATTKSKKDTFVLESVDSADEQFQNTNAETLSTNCIPIKNGSLLMVSDSERTTEGTSQQKVKEGNGKTVPGETGLPGSMKDTCKIVLATPRLHITIPRRSKRNISKLSPPRIFQTVTNGLKKNQVVQLQEWMIKSINNNTAICVEGKLIDVTNIYWHSNVIIERIEHNKLRTISGNVYILKGMIDQISMKEAGYPNYLIRKFMFGFPENWKEHIDNFLEQLRAGEKNREKTKQKQKTGRSVRDIRKSMKNDARENQTDTAQRATTTYDFDCDNLELKSNKHSESPGATELNMCHSNCQNKPTLRFPDDQVNNTIQNGGGDDLSNQELIGKKEYKMSSKKLKIGERTNERIIKSQKQETTEELDVSIDILTSREQFFSDEERKYMAINQKKAYILVTPLKSRKVIEQRCMRYNLSAGTIKAVTDFVIPECQKKSPISKSMGTLENTFEGHKSKNKEDCDERDLLTVNRKIKISNLEKEQMLTSDFKKNTRLLPKLKKIENQVAMSFYKHQSSPDLSSEESETEKEIKRKAEVKKTKAGNTKEAVVHLRKSTRNTSNIPVILEPETEESENEFYIKQKKARPSVKETLQKSGVRKEFPITEAVGSDKTNRHPLECLPGLIQDKEWNEKELQKLHCAFASLPKHKPGFWSEVAAAVGSRSPEECQRKYMENPRGKGSQKHVTKKKPANSKGQNGKRGDADQKQTIKITAKVGTLKRKQQMREFLEQLPKDDHDDFFSTTPLQHQRILLPSFQDSEDDDDILPNMDKNPTTPSSVIFPLVKTPQCQHVSPGMLGSINRNDCDKYVFRMQKYHKSNGGIVWGNIKKKLVETDFSTPTPRRKTPFNTDLGENSGIGKLFTNAVESLDEEEKDYYFSNSDSA [MIS18BP1]”, the “solubility in G1/S (log2)” value in the data set with HeLa Kyoto [1] is -1.77. Besides, in the data set on HeLa Kyoto [2], the “solubility change mitosis (log2)” value is 1.22.
Taken in the same sequence, the figures for “MIVFGWAVFLASRSLGQGLLLTLEEHIAHFLGTGGAATTMGNSCICRDDSGTDDSVDTQQQQAENSAVPTADTRSQPRDPVRPPRRGRGPHEPRRKKQNVDGLVLDTLAVIRTLVDNDQEPPYSMITLHEMAETDEGWLDVVQSLIRVIPLEDPLGPAVITLLLDECPLPTKDALQKLTEILNLNGEVACQDSSHPAKHRNTSAVLGCLAEKLAGPASIGLLSPGILEYLLQCLKLQSHPTVMLFALIALEKFAQTSENKLTISESSISDRLVTLESWANDPDYLKRQVGFCAQWSLDNLFLKEGRQLTYEKVNLSSIRAMLNSNDVSEYLKISPHGLEARCDASSFESVRCTFCVDAGVWYYEVTVVTSGVMQIGWATRDSKFLNHEGYGIGDDEYSCAYDGCRQLIWYNARSKPHIHPCWKEGDTVGFLLDLNEKQMIFFLNGNQLPPEKQVFSSTVSGFFAAASFMSYQQCEFNFGAKPFKYPPSMKFSTFNDYAFLTAEEKIILPRHRRLALLKQVSIRENCCSLCCDEVADTQLKPCGHSDLCMDCALQLETCPLCRKEIVSRIRQISHIS [RSPRY1]” were -0.235 and -0.00113.
With “MKALIVLGLVLLSVTVQGKVFERCELARTLKRLGMDGYRGISLANWMCLAKWESGYNTRATNYNAGDRSTDYGIFQINSRYWCNDGKTPGAVNACHLSCSALLQDNIADAVACAKRVVRDPQGIRAWVAWRNRCQNRDVRQYVQGCGV [LYZ]”, the “solubility in G1/S (log2)” value in the data set on HeLa Kyoto [1] is -1.78. In addition, in the data set with HeLa Kyoto [2], the “solubility change mitosis (log2)” value came to 2.19.
